Results: publication PMC7924758, “IAA3-mediated repression of PIF proteins coordinates light and auxin signaling in Arabidopsis” (PLoS Genetics, 2021)

Biological target: T1, His-PIF1 (Arabidopsis thaliana, UniProt Q8GZM7 1-478)
T1 construct: also called His-tagged PIF1; source: E. coli Transetta (DE3), purified (Ni-NTA agarose)
T1 sequence (looked up): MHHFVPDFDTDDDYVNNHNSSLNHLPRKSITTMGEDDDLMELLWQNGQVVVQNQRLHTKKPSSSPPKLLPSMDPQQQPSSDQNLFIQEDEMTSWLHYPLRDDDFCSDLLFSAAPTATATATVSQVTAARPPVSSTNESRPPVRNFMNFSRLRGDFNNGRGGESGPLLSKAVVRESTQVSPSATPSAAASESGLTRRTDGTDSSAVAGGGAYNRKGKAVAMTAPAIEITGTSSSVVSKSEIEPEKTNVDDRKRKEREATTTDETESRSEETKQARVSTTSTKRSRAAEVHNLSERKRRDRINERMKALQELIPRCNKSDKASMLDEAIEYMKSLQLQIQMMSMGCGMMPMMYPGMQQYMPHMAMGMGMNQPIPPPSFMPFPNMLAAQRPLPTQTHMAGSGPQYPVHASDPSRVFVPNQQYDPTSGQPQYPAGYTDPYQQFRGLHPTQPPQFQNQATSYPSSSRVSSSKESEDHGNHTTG
Assay: pull-down; MBP or MBP-IAA3 held on amylose resin, His-PIF1 or His-PIF4 added, 3 h at 4°C; 50 mM Tris-Cl pH 8.0, 150 mM NaCl, 10% glycerol, 0.5 mM EDTA, 0.1% Triton X-100, 5 mM β-mercaptoethanol; five washes; blots with anti-MBP and anti-His
Conditions: both partners purified

binding result: binds
B1: MBP-IAA3 (natural protein, Arabidopsis thaliana, UniProt Q38822 1-189, looked up)
chain: MDEFVNLKETELRLGLPGTDNVCEAKERVSCCNNNNKRVLSTDTEKEIESSSRKTETSPPRKAQIVGWPPVRSYRKNNIQSKKNESEHEGQGIYVKVSMDGAPYLRKIDLSCYKGYSELLKALEVMFKFSVGEYFERDGYKGSDFVPTYEDKDGDWMLIGDVPWEMFICTCKRLRIMKGSEAKGLGCGV
notes: IAA3 (SHY2), AUX/IAA transcriptional repressor, Arabidopsis; also called SHY2; source: E. coli Transetta (DE3), purified (amylose agarose)
